Source: patent US20250051476A1 (ABDERA THERAPEUTICS, published 2025)
Where two headings read alike, the source gives them in different places.

How the values were obtained:
[1] = biological target: T1, DLL3 on cells (SHP-77, NCI-H82, HEK-DLL3, membrane proteome array cells) (human, UniProt Q9NYJ7 27-618); assay: flow cytometry on SHP-77 cells, Geomeans RL1-H
T1 construct: whole, on cells; also called hDLL3
T1 sequence (looked up): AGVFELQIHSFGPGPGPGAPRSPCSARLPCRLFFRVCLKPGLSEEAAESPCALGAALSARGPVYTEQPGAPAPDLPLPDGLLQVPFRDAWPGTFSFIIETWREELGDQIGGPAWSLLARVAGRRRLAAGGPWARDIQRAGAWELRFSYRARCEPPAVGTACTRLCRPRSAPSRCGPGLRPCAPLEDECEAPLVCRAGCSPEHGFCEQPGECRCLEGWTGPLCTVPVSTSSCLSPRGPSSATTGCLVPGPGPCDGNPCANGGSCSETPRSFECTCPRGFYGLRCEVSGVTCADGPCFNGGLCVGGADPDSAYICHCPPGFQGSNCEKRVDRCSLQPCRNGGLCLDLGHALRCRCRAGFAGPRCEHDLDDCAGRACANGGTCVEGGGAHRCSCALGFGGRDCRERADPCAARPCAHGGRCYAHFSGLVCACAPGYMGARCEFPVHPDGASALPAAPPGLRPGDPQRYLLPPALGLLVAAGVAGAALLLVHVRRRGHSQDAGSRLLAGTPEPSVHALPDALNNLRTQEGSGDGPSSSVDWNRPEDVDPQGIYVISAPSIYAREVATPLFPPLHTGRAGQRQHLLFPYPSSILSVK

[2] = biological target: T1, DLL3 on cells (SHP-77, NCI-H82, …); assay: flow cytometry on SHP-77 cells, Geomeans RL1-H; remark: listed apart in the source
[3] = biological target: T2, DLL3 EGF1-6(mIgG2aCH2-CH3) (human); assay: Octet BLI, VHH-Fc captured on AHC sensor, DLL3 EGF1-6-mIgG2a Fc titrated
T2 construct: also called hDLL3 EGF domain construct; DLL3 EGF1-6 domain
T2 chain: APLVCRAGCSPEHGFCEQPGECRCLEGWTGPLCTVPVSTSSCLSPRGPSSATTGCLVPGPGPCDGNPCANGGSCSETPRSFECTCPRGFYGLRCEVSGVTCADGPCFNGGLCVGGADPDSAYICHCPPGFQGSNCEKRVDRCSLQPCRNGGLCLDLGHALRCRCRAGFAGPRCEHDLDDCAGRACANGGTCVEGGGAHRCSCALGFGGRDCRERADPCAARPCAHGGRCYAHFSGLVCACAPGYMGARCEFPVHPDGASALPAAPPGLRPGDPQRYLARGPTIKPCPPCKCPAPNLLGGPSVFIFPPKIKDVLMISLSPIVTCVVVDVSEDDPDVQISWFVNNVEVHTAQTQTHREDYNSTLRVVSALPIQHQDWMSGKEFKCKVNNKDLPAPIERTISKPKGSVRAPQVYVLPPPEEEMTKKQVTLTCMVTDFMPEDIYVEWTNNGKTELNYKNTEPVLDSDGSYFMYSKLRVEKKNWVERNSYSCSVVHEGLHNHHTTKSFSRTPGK

human DLL3 on cells = biological target: T3, human DLL3 on cells (human, UniProt Q9NYJ7 27-618); assay: cell-based or functional assay
T3 sequence (looked up): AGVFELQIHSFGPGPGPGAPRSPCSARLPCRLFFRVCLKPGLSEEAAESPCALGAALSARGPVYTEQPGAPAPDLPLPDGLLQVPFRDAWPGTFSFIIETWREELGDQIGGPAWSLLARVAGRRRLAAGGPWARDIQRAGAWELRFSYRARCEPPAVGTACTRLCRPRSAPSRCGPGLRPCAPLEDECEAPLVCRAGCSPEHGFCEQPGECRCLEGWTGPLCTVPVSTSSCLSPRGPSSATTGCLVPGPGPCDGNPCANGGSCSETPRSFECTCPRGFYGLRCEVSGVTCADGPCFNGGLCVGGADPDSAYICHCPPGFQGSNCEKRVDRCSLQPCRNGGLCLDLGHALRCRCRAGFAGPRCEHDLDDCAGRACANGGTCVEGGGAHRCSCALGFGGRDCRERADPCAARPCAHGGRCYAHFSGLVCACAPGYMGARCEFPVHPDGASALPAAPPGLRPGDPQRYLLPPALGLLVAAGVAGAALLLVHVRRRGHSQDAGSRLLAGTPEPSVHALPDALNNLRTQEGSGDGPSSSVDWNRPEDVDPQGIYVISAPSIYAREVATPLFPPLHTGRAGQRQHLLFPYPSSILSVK

[4] = biological target: T4, hDLL3 EGF1-6 (aa 216-492) fused to mIgG2a CH2-CH3 Fc (human); assay: ELISA on coated hDLL3 EGF1-6-mIgG2a Fc (2 ug/ml), anti-hIgG-Fc-HRP, A450
T4 construct: also called DLL3 EGF1-6(mIgG2aCH2-CH3); hDLL3 EGF domain construct
T4 chain: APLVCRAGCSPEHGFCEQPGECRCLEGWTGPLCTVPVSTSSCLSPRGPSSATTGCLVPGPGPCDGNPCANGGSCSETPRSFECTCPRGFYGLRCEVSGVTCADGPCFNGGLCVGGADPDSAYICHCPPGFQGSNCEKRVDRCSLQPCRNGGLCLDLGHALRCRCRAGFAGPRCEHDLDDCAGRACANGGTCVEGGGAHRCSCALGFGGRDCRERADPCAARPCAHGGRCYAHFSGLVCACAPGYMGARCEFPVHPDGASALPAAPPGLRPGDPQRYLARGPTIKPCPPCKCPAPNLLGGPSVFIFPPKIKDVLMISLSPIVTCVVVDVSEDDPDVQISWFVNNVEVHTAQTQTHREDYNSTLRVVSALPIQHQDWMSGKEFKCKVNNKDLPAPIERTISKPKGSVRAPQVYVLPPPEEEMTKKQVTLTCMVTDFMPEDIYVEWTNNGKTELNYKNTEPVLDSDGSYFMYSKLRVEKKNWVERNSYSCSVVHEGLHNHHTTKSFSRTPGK

mouse DLL3 = biological target: T5, mouse DLL3 (mouse, UniProt O88516 25-477, limits assumed); assay: ELISA
T5 construct: also called mDLL3; murine DLL3
T5 sequence (looked up): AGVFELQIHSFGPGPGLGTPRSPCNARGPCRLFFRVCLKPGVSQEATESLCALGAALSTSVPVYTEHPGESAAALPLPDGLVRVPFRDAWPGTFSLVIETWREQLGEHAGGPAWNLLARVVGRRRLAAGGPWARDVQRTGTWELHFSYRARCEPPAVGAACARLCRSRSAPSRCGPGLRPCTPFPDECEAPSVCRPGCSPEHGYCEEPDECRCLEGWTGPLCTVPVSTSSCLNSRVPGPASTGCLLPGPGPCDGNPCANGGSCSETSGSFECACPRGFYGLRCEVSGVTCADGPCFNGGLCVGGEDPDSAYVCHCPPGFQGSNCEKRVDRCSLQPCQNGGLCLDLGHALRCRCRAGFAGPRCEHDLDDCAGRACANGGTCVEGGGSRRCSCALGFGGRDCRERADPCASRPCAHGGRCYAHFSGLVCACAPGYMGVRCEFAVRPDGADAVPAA

[5] = biological target: T1, DLL3 on cells (SHP-77, NCI-H82, …); assay: flow cytometry on DLL3 expressing SHP-77 cells
DLL3 ECD = biological target: T6, DLL3 ECD (human, UniProt Q9NYJ7); assay: ELISA on coated full length DLL3 ECD (2 ug/ml), anti-hIgG-Fc-HRP, A450
T6 construct: recombinant ECD aa 27-492; also called full length DLL3 ECD (aa 27-492, Cat #ab255797, Abcam); human DLL3.HIS
T6 sequence (antigen, looked up): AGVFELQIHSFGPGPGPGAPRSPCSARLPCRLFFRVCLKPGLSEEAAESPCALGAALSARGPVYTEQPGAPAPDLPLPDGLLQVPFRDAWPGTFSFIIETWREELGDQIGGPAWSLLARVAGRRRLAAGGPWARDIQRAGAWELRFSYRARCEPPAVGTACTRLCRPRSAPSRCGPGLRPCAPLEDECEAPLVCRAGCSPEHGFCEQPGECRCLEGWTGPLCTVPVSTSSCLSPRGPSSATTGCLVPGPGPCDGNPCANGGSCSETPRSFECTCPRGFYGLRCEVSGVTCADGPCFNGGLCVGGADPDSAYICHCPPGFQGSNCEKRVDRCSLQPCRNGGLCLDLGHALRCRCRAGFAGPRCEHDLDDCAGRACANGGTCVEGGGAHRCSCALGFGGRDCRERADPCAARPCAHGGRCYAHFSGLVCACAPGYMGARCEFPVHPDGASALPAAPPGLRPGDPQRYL

B1: 107_zu2 (Fc fusion)
chain: QVQLVESGGGLVQPGGSLRLSCAASDRTFSSYAVGWFRQAPGQGLEFVAAISWNGGRTLYTDSVTGRFTISRDNSKNTLYLQMNSLRAEDTAVYYCAARPAAPTRRLEYDYWGQGTLVTVSSEPKSSDKTHTCPPCPAPEAEGAPSVFLFPPKPKDTLMISRTPEVTCVVVDVSHEDPEVKFNWYVDGVEVHNAKTKPREEQYNSTYRVVSVLTVLHQDWLNGKEYKCKVSNKALPSSIEKTISKAKGQPREPQVYTLPPSREEMTKNQVSLTCLVKGFYPSDIAVEWESNGQPENNYKTTPPVLDSDGSFFLYSKLTVDKSRWQQGNVFSCSVMHEALHNQYTQKSLSLSPG
notes: Humanized VHH-Fc
- EC50 (read off the curve) [1]: ~0.2 nM
- EC50 (read off the curve) [2]: ~0.2 nM
- Kd [3]: 5.04 nM
- koff [3]: 0.000513 s⁻¹
- kon [3]: 102000 M⁻¹ s⁻¹

B2: Clone 186 VHH-Fc with H435Q Fc (Fc fusion)
chain: QVQVVESGGGLVQPGGSLTLSCAASGFDFSTYTVNWYRQAPGKEREKVARISSTGTTTNYANSAKGRFTLSRDNAKNRVYLQMNNLKPEDTAVYFCNFERFDSNYWGQGTQVTVSSAPELLGGPSVFLFPPKPKDTLMISRTPEVTCVVVDVSHEDPEVKFNWYVDGVEVHNAKTKPREEQYNSTYRVVSVLTVLHQDWLNGKEYKCKVSNKALPAPIEKTISKAKGQPREPQVYTLPPSREEMTKNQVSLTCLVKGFYPSDIAVEWESNGQPENNYKTTPPVLDSDGSFFLYSKLTVDKSRWQQGNVFSCSVMHEALHNQYTQKSLSLSPG
- H435Q-Fc SHP-77 Internalization FOI (human DLL3 on cells): 1.18 FOI

B3: Clone 126 VHH-Fc with H435Q Fc (Fc fusion)
chain: QVQLVESGGGMVQPGGSLRLSCAASGITFSMYSMSWYRQPPGKQRELVAATTTFGSTNYADSVKGRFTISRDNAKNTVYLQMNSLKPEDTAVYLCNARFTSEEYWGQGTQVTVSSAPELLGGPSVFLFPPKPKDTLMISRTPEVTCVVVDVSHEDPEVKFNWYVDGVEVHNAKTKPREEQYNSTYRVVSVLTVLHQDWLNGKEYKCKVSNKALPAPIEKTISKAKGQPREPQVYTLPPSREEMTKNQVSLTCLVKGFYPSDIAVEWESNGQPENNYKTTPPVLDSDGSFFLYSKLTVDKSRWQQGNVFSCSVMHEALHNQYTQKSLSLSPG
- H435Q-Fc SHP-77 Internalization FOI (human DLL3 on cells): 1.19 FOI

B4: 107 (Fc fusion)
VHH-Fc chain: QVQLVESGGGLVQAGDSLRLSCVASDRTFSSYAVGWFRQAPGKEREFVAAISWNGGRTLYTDSVTGRFTISRDNAKSTVYLQMNGLKPEDTAVYYCAARPAAPTRRLEYDYWGQGTQVTVSS
notes: same clone as 1.m45, 2.m28, 3.m30, 3.m55, 4.m13
- binding result [4]: binds

B5: 100 (Fc fusion)
VHH-Fc chain: QVQLVESGGGSVQPGGSLRLSCAASGIVFNSDVMGWYRQVPGKPRELVATITGGGSTNYATSVKGRFTISRDNAKNTVYLQMNSLRPEDTAVYYCNGRRGDSMLAFWAQGTQVTVSS
notes: same clone as 1.m44, 2.m24, 3.m26, 3.m53, 4.m7; also called Clone 100
- binding result [4]: binds

B6: 126_zu2 (Fc fusion)
chain: QVQLVESGGGLVQPGGSLRLSCAASGITFSMYSMSWFRQAPGQGLELVAATTTFGSTNYADSVKGRFTISRDNSKNTLYLQMNSLRAEDTAVYYCAARFTSEEYWGQGTLVTVSSEPKSSDKTHTCPPCPAPEAEGAPSVFLFPPKPKDTLMISRTPEVTCVVVDVSHEDPEVKFNWYVDGVEVHNAKTKPREEQYNSTYRVVSVLTVLHQDWLNGKEYKCKVSNKALPSSIEKTISKAKGQPREPQVYTLPPSREEMTKNQVSLTCLVKGFYPSDIAVEWESNGQPENNYKTTPPVLDSDGSFFLYSKLTVDKSRWQQGNVFSCSVMHEALHNQYTQKSLSLSPG
notes: Humanized VHH-Fc
- binding result (mouse DLL3): no binding
- EC50 (read off the curve) [1]: ~0.1 nM
- EC50 (read off the curve) [2]: ~0.07 nM
- binding result [3]: no binding

B7: 126_zu1 (Fc fusion)
chain: QVQLVESGGGLVQPGGSLRLSCAASGITFSMYSMSWFRQAPGQGLEAVAATTTFGSTNYADSVKGRFTISRDNSKNTLYLQMNSLRAEDTAVYYCAARFTSEEYWGQGTLVTVSSEPKSSDKTHTCPPCPAPEAEGAPSVFLFPPKPKDTLMISRTPEVTCVVVDVSHEDPEVKFNWYVDGVEVHNAKTKPREEQYNSTYRVVSVLTVLHQDWLNGKEYKCKVSNKALPSSIEKTISKAKGQPREPQVYTLPPSREEMTKNQVSLTCLVKGFYPSDIAVEWESNGQPENNYKTTPPVLDSDGSFFLYSKLTVDKSRWQQGNVFSCSVMHEALHNQYTQKSLSLSPG
notes: Humanized VHHFc
- binding result [5]: binds

B8: Sc16.23 (antibody, V domains shown)
VH: QVTLKESGPGILQPSQTLSLTCSFSGFSLSTSNTGIGWIRQPSGTGLEWLAHIWWNDDKYYNPSLKSRLTISKETSNNQVFLKITNVDTADTASYFCVQIGRDYSNYAWYFDVWGAGTTVTVSS
VL: QIVLTQSPAIMSASPGEKVTLTCSASSSVSSRYLYWYQQKPGSSPKLWIYSTSNLASGVPARFSGSGSGTSYSLIISSMEAEDAASYFCHQWSNYPLTFGAGTKLELK
- EC50 (read off the curve) (DLL3 ECD): ~0.8 nM

B9: 24 (Fc fusion)
VHH-Fc chain: QVQYVESGGGLVQPGGSLRLSCAASGFTFSSYRINWYRQPPGKGRELVGSITDTGSTNYADSVKGRFTISRDNAKNTVYLQMSSLKPEDTAVYYCRAPTIAAYWGQGTQVTVSS
notes: same clone as 1.m43, 2.m5, 3.m7, 3.m51, 4.m1; also called Clone 24
- binding result [4]: binds

B10: 126 (parental VHHFc of Example 41) (Fc fusion)
chain: QVQLVESGGGMVQPGGSLRLSCAASGITFSMYSMSWYRQPPGKQRELVAATTTFGSTNYADSVKGRFTISRDNAKNTVYLQMNSLKPEDTAVYLCNARFTSEEYWGQGTQVTVSS
notes: Parental VHHFc; not shown: hinge and Fc
- binding result [4]: no binding (tested: 100 nM)
